T1: Utp21 1–684 (tandem WD domain, GST-tag cleaved) (yeast (S. cerevisiae), UniProt Q06078 1-684)
T1 construct: The methods say only 'purified as described above' for the protein of the pull-down; also called tandem WD domain of Utp21; source: E. coli BL21(DE3), purified (Glutathione Sepharose, on-bead PreScission cleavage, Superdex 200); not shown: GST, N-terminal, cleaved
T1 sequence (looked up): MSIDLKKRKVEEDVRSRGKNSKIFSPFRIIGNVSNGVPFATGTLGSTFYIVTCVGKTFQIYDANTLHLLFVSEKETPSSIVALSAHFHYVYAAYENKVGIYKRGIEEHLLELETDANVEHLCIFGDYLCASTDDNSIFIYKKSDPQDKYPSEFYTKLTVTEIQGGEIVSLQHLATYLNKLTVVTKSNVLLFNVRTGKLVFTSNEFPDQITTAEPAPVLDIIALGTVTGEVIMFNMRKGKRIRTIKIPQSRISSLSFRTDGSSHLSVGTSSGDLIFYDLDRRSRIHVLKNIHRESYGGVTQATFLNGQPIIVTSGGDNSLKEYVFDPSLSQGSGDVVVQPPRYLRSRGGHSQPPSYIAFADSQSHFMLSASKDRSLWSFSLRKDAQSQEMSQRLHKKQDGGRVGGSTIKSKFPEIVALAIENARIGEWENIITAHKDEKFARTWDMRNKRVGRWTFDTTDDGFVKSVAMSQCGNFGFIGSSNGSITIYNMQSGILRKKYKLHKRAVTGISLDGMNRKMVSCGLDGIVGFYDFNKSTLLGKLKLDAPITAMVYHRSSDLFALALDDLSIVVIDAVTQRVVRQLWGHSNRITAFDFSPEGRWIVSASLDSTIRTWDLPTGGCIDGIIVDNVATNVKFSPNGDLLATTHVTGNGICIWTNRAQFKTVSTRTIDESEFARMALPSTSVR

B1: His6-Smt3-Utp18 139–190 (domain or fragment, yeast (S. cerevisiae), UniProt P40362 139-190, looked up)
chain: VTNKTKKLRTSYNESKINGVHYINRLRSQFEKIYPRPKWVDDESDSELDDEE
notes: Utp18, yeast (S. cerevisiae), residues 139–190; source: expressed from pET28a, purified (HisTrap and Q chromatography); not shown: His6, N-terminal, kept; Smt3, N-terminal, kept
B2: His6-Smt3-Utp18 100–190 (domain or fragment, yeast (S. cerevisiae), UniProt P40362 100-190, looked up)
chain: EDTMDVDDEDDSSSDDYSEDSEEAAWIDSDDEKIKVPILVTNKTKKLRTSYNESKINGVHYINRLRSQFEKIYPRPKWVDDESDSELDDEE
notes: Utp18, yeast (S. cerevisiae), residues 100–190; source: expressed from pET28a, purified (HisTrap and Q chromatography); not shown: His6, N-terminal, kept; Smt3, N-terminal, kept
B3: His6-Smt3-Utp18 100–139 (domain or fragment, yeast (S. cerevisiae), UniProt P40362 100-139, looked up)
chain: EDTMDVDDEDDSSSDDYSEDSEEAAWIDSDDEKIKVPILV
notes: Utp18, yeast (S. cerevisiae), residues 100–139; source: expressed from pET28a, purified (HisTrap and Q chromatography); not shown: His6, N-terminal, kept; Smt3, N-terminal, kept

The experiment has as its target T1, Utp21 1–684 (tandem WD domain, GST-tag …). The experiment is described as follows: pull-down; His6-Smt3-tagged Utp18 fragments (0.95 nmol) incubated with Utp21 1–684 (1.9 nmol) 2 h at 4°C, bound to Ni Sepharose beads; washed with 25 mM Tris-HCl pH 7.6, 500 mM NaCl, 10 mM imidazole; SDS-PAGE, Coomassie. The conditions noted are these: both partners purified.
B1: the binding result was “binds”.

Consider B2, for which the binding result is reported as “binds”.

As for B3, the binding result is recorded as “binds”.

(Values after publication PMC3897721, “Structure of Utp21 Tandem WD Domain Provides Insight into the Organization of the UTPB Complex Involved in Ribosome Synthesis” (PLoS ONE, 2014).)
